Data on 2 molecules can be found in paper doi:10.1101/2020.07.10.197400 (bioRxiv, 2020).

For data set [1], the target named is Trx-kindlin2_F2 (residues 260 – 572) without PH domain (mouse). Put plainly: SEC-MALS. Background: Size exclusion chromatography separates by hydrodynamic size, large species first.
The data set “SEC-MALS” concerns the molecule itself. Put plainly: SEC-MALS.

Turning to “Trx-kindlin2_F2 (residues 260 – 572) without PH domain (domain or fragment)”, the stoichiometry N (commonly a count of units in the complex or per binding partner) in data set [1] was found to be 2.

B1: GCN4-tetramerized β1-integrin tail (domain or fragment)
chain: MKQIEDKLEEILSKLYHIENELARIKKLLGERIIHDRREFAKFEKEKMNAKWDTGENPIYKSAVTTVVNPKYEGK
Turning to B1, the “stoichiometry N” value in “SEC-MALS” is 4.
